Measurements from paper doi:10.1101/2020.11.13.381095 (bioRxiv, 2020).

B1: cytochrome P450 CYP11B2 (aldosterone synthase) (enzyme, human, UniProt P19099 25-503, looked up)
chain: GTRAARAPRTVLPFEAMPQHPGNRWLRLLQIWREQGYEHLHLEMHQTFQELGPIFRYNLGGPRMVCVMLPEDVEKLQQVDSLHPCRMILEPWVAYRQHRGHKCGVFLLNGPEWRFNRLRLNPDVLSPKAVQRFLPMVDAVARDFSQALKKKVLQNARGSLTLDVQPSIFHYTIEASNLALFGERLGLVGHSPSSASLNFLHALEVMFKSTVQLMFMPRSLSRWISPKVWKEHFEAWDCIFQYGDNCIQKIYQELAFNRPQHYTGIVAELLLKAELSLEAIKANSMELTAGSVDTTAFPLLMTLFELARNPDVQQILRQESLAAAASISEHPQKATTELPLLRAALKETLRLYPVGLFLERVVSSDLVLQNYHIPAGTLVQVFLYSLGRNAALFPRPERYNPQRWLDIRGSGRNFHHVPFGFGMRQCLGRRLAEAEMLLLLHHVLKHFLVETLTQEDIKMVYSFILRPGTSPLLTFRAIN
B2: cytochrome P450 CYP11B1 (11ß-hydroxylase) (enzyme, human)
chain: VPRTVLPFEAMPRRPGNRWLRLLQIWREQGYEDLHLEVHQTFQELGPIFRYDLGGAGMVCVMLPEDVEKLQQVDSLHPHRMSLEPWVAYRQHRGHKCGVFLLNGPEWRFNRLRLNPEVLSPNAVQRFLPMVDAVARDFSQALKKKVLQNARGSLTLDVQPSIFHYTIEASNLALFGERLGLVGHSPSSASLNFLHALEVMFKSTVQLMFMPRSLSRWTSPKVWKEHFEAWDCIFQYGDNCIQKIYQELAFSRPQQYTSIVAELLLNAELSPDAIKANSMELTAGSVDTTVFPLLMTLFELARNPNVQQALRQESLAAAASISEHPQKATTELPLLRAALKETLRLYPVGLFLERVASSDLVLQNYHIPAGTLVRVFLYSLGRNPALFPRPERYNPQRWLDIRGSGRNFYHVPFGFGMRQCLGRRLAEAEMLLLLHHVLKHLQVETLTQEDIKMVYSFILRPSMFPLLTFRAIN
B3: cytochrome P450 CYP11A1 (cholesterol side chain cleavage enzyme) (enzyme, human)
chain: STRSPRPFNEIPSPGDNGWLNLYHFWRETGTHKVHLHHVQNFQKYGPIYREKLGNVESVYVIDPEDVALLFKSEGPNPERFLIPPWVAYHQYYQRPIGVLLKKSAAWKKDRVALNQEVMAPEATKNFLPLLDAVSRDFVSVLHRRIKKAGSGNYSGDISDDLFRFAFESITNVIFGERQGMLEEVVNPEAQRFIDAIYQMFHTSVPMLNLPPDLFRLFRTKTWKDHVAAWDVIFSKADIYTQNFYWELRQKGSVHHDYRGILYRLLGDSKMSFEDIKANVTEMLAGGVDTTSMTLQWHLYEMARNLKVQDMLRAEVLAARHQAQGDMATMLQLVPLLKASIKETLRLHPISVTLQRYLVNDLVLRDYMIPAKTLVQVAIYALGREPTFFFDPENFDPTRWLSKDKNITYFRNLGFGWGVRQCLGRRIAELEMTIFLINMLENFRVEIQHLSDVGTTFNLILMPEKPISFTFWPFNQEATQQ

Key:
Test in all cases: SPR
adrenodoxin [1] = target: T1, adrenodoxin (human, UniProt P10109 61-184)
T1 sequence (looked up): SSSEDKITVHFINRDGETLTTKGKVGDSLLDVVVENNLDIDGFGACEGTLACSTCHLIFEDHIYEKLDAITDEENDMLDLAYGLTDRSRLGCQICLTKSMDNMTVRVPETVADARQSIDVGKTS

adrenodoxin [2] = target: T1, adrenodoxin; remark: listed apart in the source
adrenodoxin [3] = target: T1, adrenodoxin; remark: listed apart in the source
adrenodoxin [4] = target: T1, adrenodoxin; remark: listed apart in the source
adrenodoxin [5] = target: T1, adrenodoxin; remark: listed apart in the source
adrenodoxin [6] = target: T1, adrenodoxin; remark: listed apart in the source
adrenodoxin [7] = target: T1, adrenodoxin; remark: listed apart in the source
adrenodoxin [8] = target: T1, adrenodoxin; remark: listed apart in the source
adrenodoxin [9] = target: T1, adrenodoxin; remark: listed apart in the source

fold increase of Kd with 11-deoxycorticosterone against ligand-free (adrenodoxin [1]) [fold]	fold increase of koff with 11-deoxycorticosterone against ligand-free (adrenodoxin [1]) [fold]	fold change of Kd with corticosterone against ligand-free (adrenodoxin [2]) [fold]	fold increase of Kd with 11-deoxycortisol against ligand-free (adrenodoxin [3]) [fold]	fold increase of kon with 11-deoxycorticosterone against ligand-free (adrenodoxin [1]) [fold]	fold increase of koff with 11-deoxycortisol against ligand-free (adrenodoxin [3]) [fold]	fold increase of kon with 11-deoxycortisol against ligand-free (adrenodoxin [3]) [fold]	fold increase of Kd with pregnenolone against cholesterol (adrenodoxin [4]) [fold]	fold increase of Kd with 22R-hydroxycholesterol against cholesterol (adrenodoxin [5]) [fold]	fold decrease of kon with 25-hydroxycholesterol against ligand-free (adrenodoxin [6]) [fold]	fold increase of Kd with 25-hydroxycholesterol against ligand-free (adrenodoxin [6]) [fold]	fold decrease of kon with 20R,22R-dihydroxycholesterol against ligand-free (adrenodoxin [7]) [fold]	fold increase of Kd with 20R,22R-dihydroxycholesterol against cholesterol (adrenodoxin [7]) [fold]	fold increase of Kd with 20R,22R-dihydroxycholesterol against ligand-free (adrenodoxin [7]) [fold]	fold increase of koff with 20R,22R-dihydroxycholesterol against ligand-free (adrenodoxin [7]) [fold]	fold change of koff with cholesterol against ligand-free (adrenodoxin [8]) [fold]	fold increase of kon with cholesterol against ligand-free (adrenodoxin [8]) [fold]	fold decrease of kon with 20S-hydroxycholesterol against ligand-free (adrenodoxin [9]) [fold]	fold increase of Kd with 20S-hydroxycholesterol against ligand-free (adrenodoxin [9]) [fold]	Binder
11	7	1.7	4.7	–	–	–	–	–	–	–	–	–	–	–	–	–	–	–	B1
2.4	4.4	–	–	~2	~3.2	4	–	–	–	–	–	–	–	–	–	–	–	–	B2
–	–	–	–	–	–	–	~21	4	2	4.6	2	~10	~3.4	~1.8	~1.5	4	2	3.1	B3
